B1: IL10R binding molecule of SEQ ID NO: 269 (bispecific antibody)
chain: QVQLQESGGGSVQAGGSLRLSCAASRFTYSSYCMGWFRQAPGKEREGVASIDSDGSTSYTDSVKGRFTISKDNAKNTLYLQMNSLKPEDTAMYYCALDLMSTVVPGFCGFLLSAGMDYWGKGTQVTVSSGGGSQVQLQESGGGSVQTGGSLRLSCAASGYTYLRGCMGWFRQAPGKEREGVAVMDVVGDRRSYIDSVKGRFTISRDNAANSVYLQMDNLKPEDTAMYYCTAGPNCVGWRSGLDYWGQGTQVTVSSASHHHHHH
B2: IL10R binding molecule of SEQ ID NO: 267 (bispecific antibody)
chain: QVQLQESGGGSVQAGGSLRLSCAASRFTYSSYCMGWFRQAPGKEREGVASIDSDGSTSYTDSVKGRFTISKDNAKNTLYLQMNSLKPEDTAMYYCALDLMSTVVPGFCGFLLSAGMDYWGKGTQVTVSSGGGSQVQLQESGGGSVEAGGSLRLSCAASGYTHSSYCMGWFRQAPGKEREGVAAIDVDGSTTYADSVKGRFTISKDNAKNTLYLQMNSLKPEDTGMYYCAAEFADCSSNYFLPPGAVRYWGQGTQVTVSSASHHHHHH
B3: IL10R binding molecule of SEQ ID NO: 278 (bispecific antibody)
chain: QVQLQESGGGSVQAGGSLRLSCAVSGYAYSTYCMGWFRQAPGKEREGVAAIDSGGSTSYADSVKGRFTISKDNAKNTLYLRMNSLKPEDTAMYYCAAVPPPPDGGSCLFLGPEIKVSKADFRYWGQGTQVTVSSGGGSQVQLQESGGGSVQAGGSLRLSCAASGYTYSSYCMGWFRQAPGKEREGVAHIDSDGSTSYADSVKGRFTISKDNAKNTLYLQMNSLKPEDTAMYYCAADPIPGPGYCDGGPNKYWGQGTQVTVSSASHHHHHH
B4: IL10R binding molecule of SEQ ID NO: 266 (bispecific antibody)
chain: QVQLQESGGGSVQAGGSLRLSCAASRFTYSSYCMGWFRQAPGKEREGVASIDSDGSTSYTDSVKGRFTISKDNAKNTLYLQMNSLKPEDTAMYYCALDLMSTVVPGFCGFLLSAGMDYWGKGTQVTVSSGGGSQVQLQESGGGSVQAGGSLRLSCTVSRYTASVNYMGWFRQAPGKEREGVATIFTGAGTTYYANSVKGRFTISRDNAKNTAYLQMNSLKPEDTAIYYCAVDFRGGLLYRPAYEYTYRGQGTQVTVSSASHHHHHH
B5: IL10R binding molecule of SEQ ID NO: 276 (bispecific antibody)
chain: QVQLQESGGGSVQAGGSLRLSCAASGYTYSMYCMGWFRQAPGKEREGVAQINSDGSTSYADSVKGRFTISKDNAKNTLYLQMNSLKPEDTAMYYCAADSRVYGGSWYERLCGPYTYEYNYWGQGTQVTVSSGGGSQVQLQESGGGSVQTGGSLRLSCAASGYTYLRGCMGWFRQAPGKEREGVAVMDVVGDRRSYIDSVKGRFTISRDNAANSVYLQMDNLKPEDTAMYYCTAGPNCVGWRSGLDYWGQGTQVTVSSASHHHHHH
B6: IL10R binding molecule of SEQ ID NO: 270 (bispecific antibody)
chain: QVQLQESGGGSVQAGGSLRLSCAASGYTYSMYCMGWFRQAPGKEREGVAQINSDGSTSYADSVKGRFTISKDNAKNTLYLQMNSLKPEDTAMYYCAADSRVYGGSWYERLCGPYTYEYNYWGQGTQVTVSSGGGSQVQLQESGGGSVQAGGSLRLSCAASGYTYSSGCMGWFRQAPGKEREAVAAINSDGSTSYADSVKGRFTISKDNAKNTLYLQMNSLKPEDTAMYYCAAEPYCSGGYPRWSVAEFGYWGQGTQVTVSSASHHHHHH
B7: IL10R binding molecule of SEQ ID NO: 268 (bispecific antibody)
chain: QVQLQESGGGSVQAGGSLRLSCAASRFTYSSYCMGWFRQAPGKEREGVASIDSDGSTSYTDSVKGRFTISKDNAKNTLYLQMNSLKPEDTAMYYCALDLMSTVVPGFCGFLLSAGMDYWGKGTQVTVSSGGGSQVQLQESGGGSVQAGGSLRLSCAASGYSYSSYCMGWFRQAPGKEREGVATIDSDGMTRYADSVKGRFTISKDNAKNTLYLQMNSLKPEDTAMYYCAAPLYDCDSGAVGRNPPYWGQGTQVTVSSASHHHHHH
B8: IL10R binding molecule of SEQ ID NO: 272 (bispecific antibody)
chain: QVQLQESGGGSVQAGGSLRLSCAASGYTYSMYCMGWFRQAPGKEREGVAQINSDGSTSYADSVKGRFTISKDNAKNTLYLQMNSLKPEDTAMYYCAADSRVYGGSWYERLCGPYTYEYNYWGQGTQVTVSSGGGSQVQLQESGGGSVQAGGSLRLSCAASRYTYNSYCMGWFRQAPGKEREGVATIDSDGMTRYADSVKGRFTISKDNAKNTLYLQMNSLKPEDTAMYYCAADADCTIAAMTTNPLGQGTQVTVSSASHHHHHH
B9: IL10R binding molecule of SEQ ID NO: 274 (bispecific antibody)
chain: QVQLQESGGGSVQAGGSLRLSCAASGYTYSMYCMGWFRQAPGKEREGVAQINSDGSTSYADSVKGRFTISKDNAKNTLYLQMNSLKPEDTAMYYCAADSRVYGGSWYERLCGPYTYEYNYWGQGTQVTVSSGGGSQVQLQESGGGSVEAGGSLRLSCAASGYTHSSYCMGWFRQAPGKEREGVAAIDVDGSTTYADSVKGRFTISKDNAKNTLYLQMNSLKPEDTGMYYCAAEFADCSSNYFLPPGAVRYWGQGTQVTVSSASHHHHHH
B10: IL10R binding molecule of SEQ ID NO: 265 (bispecific antibody)
chain: QVQLQESGGGSVQAGGSLRLSCAASRFTYSSYCMGWFRQAPGKEREGVASIDSDGSTSYTDSVKGRFTISKDNAKNTLYLQMNSLKPEDTAMYYCALDLMSTVVPGFCGFLLSAGMDYWGKGTQVTVSSGGGSQVQLQESGGGSVQAGGSLRLSCAASRYTYNSYCMGWFRQAPGKEREGVATIDSDGMTRYADSVKGRFTISKDNAKNTLYLQMNSLKPEDTAMYYCAADADCTIAAMTTNPLGQGTQVTVSSASHHHHHH
B11: IL10R binding molecule of SEQ ID NO: 271 (bispecific antibody)
chain: QVQLQESGGGSVQAGGSLRLSCAASGYTYSMYCMGWFRQAPGKEREGVAQINSDGSTSYADSVKGRFTISKDNAKNTLYLQMNSLKPEDTAMYYCAADSRVYGGSWYERLCGPYTYEYNYWGQGTQVTVSSGGGSQVQLQESGGGSVQAGGSLRLSCAASGYTYSSYCMGWFRQAPGKEREGVAHIDSDGSTSYADSVKGRFTISKDNAKNTLYLQMNSLKPEDTAMYYCAADPIPGPGYCDGGPNKYWGQGTQVTVSSASHHHHHH
B12: IL10R binding molecule of SEQ ID NO: 277 (bispecific antibody)
chain: QVQLQESGGGSVQAGGSLRLSCAVSGYAYSTYCMGWFRQAPGKEREGVAAIDSGGSTSYADSVKGRFTISKDNAKNTLYLRMNSLKPEDTAMYYCAAVPPPPDGGSCLFLGPEIKVSKADFRYWGQGTQVTVSSGGGSQVQLQESGGGSVQAGGSLRLSCAASGYTYSSGCMGWFRQAPGKEREAVAAINSDGSTSYADSVKGRFTISKDNAKNTLYLQMNSLKPEDTAMYYCAAEPYCSGGYPRWSVAEFGYWGQGTQVTVSSASHHHHHH
B13: IL10R binding molecule of SEQ ID NO: 275 (bispecific antibody)
chain: QVQLQESGGGSVQAGGSLRLSCAASGYTYSMYCMGWFRQAPGKEREGVAQINSDGSTSYADSVKGRFTISKDNAKNTLYLQMNSLKPEDTAMYYCAADSRVYGGSWYERLCGPYTYEYNYWGQGTQVTVSSGGGSQVQLQESGGGSVQAGGSLRLSCAASGYSYSSYCMGWFRQAPGKEREGVATIDSDGMTRYADSVKGRFTISKDNAKNTLYLQMNSLKPEDTAMYYCAAPLYDCDSGAVGRNPPYWGQGTQVTVSSASHHHHHH
B14: IL10R binding molecule of SEQ ID NO: 256 (bispecific antibody)
chain: QVQLQESGGGSVQAGGSLRLSCAASRYLYSIDYMAWFRQSPGKEREPVAVIYTASGATFYPDSVKGRFTISQDNAKMTVYLQMNSLKSEDTAMYYCAAVRKTDSYLFDAQSFTYWGQGTQVTVSSGGGSQVQLQESGGGSVQAGGSLRLSCAASGYTYSSGCMGWFRQAPGKEREAVAAINSDGSTSYADSVKGRFTISKDNAKNTLYLQMNSLKPEDTAMYYCAAEPYCSGGYPRWSVAEFGYWGQGTQVTVSSASHHHHHH
B15: IL10R binding molecule of SEQ ID NO: 273 (bispecific antibody)
chain: QVQLQESGGGSVQAGGSLRLSCAASGYTYSMYCMGWFRQAPGKEREGVAQINSDGSTSYADSVKGRFTISKDNAKNTLYLQMNSLKPEDTAMYYCAADSRVYGGSWYERLCGPYTYEYNYWGQGTQVTVSSGGGSQVQLQESGGGSVQAGGSLRLSCTVSRYTASVNYMGWFRQAPGKEREGVATIFTGAGTTYYANSVKGRFTISRDNAKNTAYLQMNSLKPEDTAIYYCAVDFRGGLLYRPAYEYTYRGQGTQVTVSSASHHHHHH

molecular target: T1, human IL-10 receptor (hIL-10R alpha and beta chains) on HEK-Blue IL-10 reporter cells (human, UniProt Q13651 22-578; Q08334 20-325); assay: cell-based or functional assay
T1 sequence 1: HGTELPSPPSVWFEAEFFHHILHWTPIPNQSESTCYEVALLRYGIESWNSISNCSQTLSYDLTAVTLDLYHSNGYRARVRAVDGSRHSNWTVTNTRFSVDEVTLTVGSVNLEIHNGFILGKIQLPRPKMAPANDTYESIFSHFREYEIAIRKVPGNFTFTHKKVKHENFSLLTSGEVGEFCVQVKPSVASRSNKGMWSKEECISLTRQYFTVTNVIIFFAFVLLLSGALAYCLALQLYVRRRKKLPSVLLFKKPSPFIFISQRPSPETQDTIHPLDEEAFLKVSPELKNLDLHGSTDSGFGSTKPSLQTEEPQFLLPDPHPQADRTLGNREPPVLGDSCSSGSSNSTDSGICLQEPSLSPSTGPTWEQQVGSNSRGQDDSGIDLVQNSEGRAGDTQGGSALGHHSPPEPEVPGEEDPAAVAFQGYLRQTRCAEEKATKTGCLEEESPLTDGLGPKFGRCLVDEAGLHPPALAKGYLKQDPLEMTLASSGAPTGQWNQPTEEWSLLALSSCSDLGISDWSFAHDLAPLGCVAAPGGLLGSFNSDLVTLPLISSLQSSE
T1 sequence 2: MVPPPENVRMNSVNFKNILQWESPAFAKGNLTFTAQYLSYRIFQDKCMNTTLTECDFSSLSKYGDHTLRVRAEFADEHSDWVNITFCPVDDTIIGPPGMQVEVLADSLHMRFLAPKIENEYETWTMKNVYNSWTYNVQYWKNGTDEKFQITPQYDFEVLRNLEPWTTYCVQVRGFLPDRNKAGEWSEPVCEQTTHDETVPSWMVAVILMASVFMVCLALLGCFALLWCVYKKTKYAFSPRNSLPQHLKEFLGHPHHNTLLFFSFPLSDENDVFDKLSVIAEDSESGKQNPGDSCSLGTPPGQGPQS

Point of comparison: B14, “Abs 630 (25 nM)” value 0.49 Abs 630. Against it:
- B1 — lower, 0.46 Abs 630
- B2 — higher, 0.75 Abs 630
- B3 — higher, 1.61 Abs 630
- B4 — the same, 0.49 Abs 630
- B5 — lower, 0.46 Abs 630
- B6 — higher, 1.41 Abs 630
- B7 — higher, 0.53 Abs 630
- B8 — lower, 0.47 Abs 630
- B9 — lower, 0.46 Abs 630
- B10 — higher, 0.54 Abs 630
- B11 — higher, 1.93 Abs 630
- B12 — higher, 1.19 Abs 630
- B13 — higher, 0.51 Abs 630
- B15 — higher, 0.52 Abs 630

Point of comparison: B1, “Abs 630 (100 nM)” value 0.37 Abs 630. Against it:
- B2 — higher, 0.53 Abs 630
- B3 — higher, 1.18 Abs 630
- B4 — higher, 0.39 Abs 630
- B5 — lower, 0.36 Abs 630
- B6 — higher, 0.73 Abs 630
- B7 — higher, 0.41 Abs 630
- B8 — higher, 0.38 Abs 630
- B9 — the same, 0.37 Abs 630
- B10 — higher, 0.46 Abs 630
- B11 — higher, 1.65 Abs 630
- B12 — higher, 1 Abs 630
- B13 — lower, 0.36 Abs 630
- B14 — higher, 0.39 Abs 630
- B15 — higher, 0.41 Abs 630

Source: patent US20250163167A1 (SYNTHEKINE, published 2025)
